Source: patent US20100285039A1, “B7-H1 (CD274) Antagonists Induce Apoptosis of Tumor Cells” (THE JOHNS HOPKINS UNIVERSITY, priority 2008, published 2010)

Legend:
[1] = target: wild type murine B7-H1 expressed on P815 cells (B7-H1/P815) (mouse) (UniProt Q9EP73); test: cell-based or functional assay
[2] = test system: B7-H1/P815 cells; test: Staurosporine induced apoptosis (annexin V/PI); format: cell-based, mouse; details: Staurosporine (STP 1 μM), control Ig-treated cells
Procedure: PD-1Ig fusion protein or control IgG were coated on 96 well-plates for 18 hr at 4° C. Full length B7-H1/P815 cells were cultured with STP (1 μM) in the well coated PD-1Ig or control IgG. Cells were harvested after 24 hr and stained with annexin V (BD PharMingen) at 5 μl/test, propidium iodide (PI) (Sigma-Aldrich) at 5 μg/ml for 1 hour and monoclonal antibodies against H-2D^d. Apoptosis was calculated as the percentage of annexin V+PI-cells gated in the H-2D^d+ fractions.
B7-H1 was assayed to determine whether it confers resistance to drugs which induce apoptosis of tumor cells. […] Staurosporine is often used as a general method for inducing apoptosis of tumor cells.

wild type murine B7-H1 expressed on P815 cells (B7-H1/P815) (mouse), sequence (Q9EP73 19-290): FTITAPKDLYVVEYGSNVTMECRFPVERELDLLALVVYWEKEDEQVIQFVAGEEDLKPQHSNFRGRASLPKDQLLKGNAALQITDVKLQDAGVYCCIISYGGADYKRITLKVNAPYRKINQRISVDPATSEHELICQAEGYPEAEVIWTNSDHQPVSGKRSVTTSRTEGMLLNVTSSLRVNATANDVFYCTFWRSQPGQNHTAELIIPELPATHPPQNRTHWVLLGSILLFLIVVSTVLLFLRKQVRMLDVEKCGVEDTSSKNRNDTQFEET

| cytolytic activity of CTLs against B7-H1/P815 targets [1] | Molecule | apoptosis of B7-H1/P815 cells [2] |
| --- | --- | --- |
| 50% | wild type murine PD-1 expressed on transduced PD-1KO 2C CTLs (PD-1/PD-1^02C) (from UniProt Q02242 25-288) (receptor) | – |
| – | CN[C@@H]1C[C@H]2O[C@@](C)([C@@H]1OC)n1c3ccccc3c3c4c(c5c6ccccc6n2c5c31)C(=O)NC4 [Staurosporine] | 74.9% |
